In US20050176632A1 (published 2005):

Columns and labels:
[1] = target: human type ZAQ (G protein-conjugated receptor protein ZAQ) expressed on CHO cells (ZAQC-B1 cells) (human, UniProt Q8TCW9 1-393); experiment: cell-based or functional assay
[2] = target: human type I5E receptor expressed on CHO cells (I5E-4 cells) (human, UniProt Q8NFJ6 1-384); experiment: cell-based or functional assay
Sequence of human type I5E receptor expressed on CHO cells (I5E-4 cells) (Q8NFJ6 whole entry): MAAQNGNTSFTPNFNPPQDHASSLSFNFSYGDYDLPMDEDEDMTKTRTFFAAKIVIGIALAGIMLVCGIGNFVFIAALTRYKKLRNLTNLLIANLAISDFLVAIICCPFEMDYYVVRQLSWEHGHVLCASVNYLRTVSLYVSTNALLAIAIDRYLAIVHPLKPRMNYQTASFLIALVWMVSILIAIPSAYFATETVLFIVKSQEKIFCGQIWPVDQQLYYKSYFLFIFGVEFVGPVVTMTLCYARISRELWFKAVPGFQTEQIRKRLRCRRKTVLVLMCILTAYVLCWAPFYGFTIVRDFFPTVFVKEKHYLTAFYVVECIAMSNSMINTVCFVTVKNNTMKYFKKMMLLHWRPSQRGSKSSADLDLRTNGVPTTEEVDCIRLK

Sequence of human type ZAQ (G protein-conjugated receptor protein ZAQ) expressed on CHO cells (ZAQC-B1 cells) (Q8TCW9 whole entry): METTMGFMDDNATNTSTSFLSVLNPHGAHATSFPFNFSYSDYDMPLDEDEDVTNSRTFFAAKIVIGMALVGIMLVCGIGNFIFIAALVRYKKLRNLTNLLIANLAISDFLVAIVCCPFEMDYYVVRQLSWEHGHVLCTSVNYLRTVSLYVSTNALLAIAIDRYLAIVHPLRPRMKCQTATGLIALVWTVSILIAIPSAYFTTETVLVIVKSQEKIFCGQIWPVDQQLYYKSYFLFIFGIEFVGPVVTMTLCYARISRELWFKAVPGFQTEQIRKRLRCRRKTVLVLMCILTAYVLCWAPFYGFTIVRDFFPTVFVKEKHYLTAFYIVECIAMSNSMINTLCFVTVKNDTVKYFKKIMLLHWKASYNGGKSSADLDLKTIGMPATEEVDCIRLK

| Binder | EC50 of the increase of intracellular calcium concentration in ZAQ expression CHO cells (ZAQC-B1 cells), FLIPR [1] [nM] | action to activate a human type I5E receptor, relative to the human type ZAQ ligand peptide (FLIPR) [2] | action to activate an I5E receptor, relative to the human type Bv8 peptide (FLIPR) [2] | action to activate a ZAQ receptor, relative to the human type ZAQ ligand peptide (FLIPR) [1] |
| --- | --- | --- | --- | --- |
| human type ZAQ ligand mature peptide (type G, 86 amino acid residues) (ligand) AVITGACERDVQCGAGTCCAISLWLRGLRMCTPLGREGEECHPGSHKVPFFRKRKHHTCPCLPNLLCSRFPDGRYRCSMDLKNINF | 0.096 |  |  |  |
| snake venom MIT1 (ligand) AVITGACERDLQCGKGTCCAVSLWIKSVRVCTPVGTSGEDCHPASHKIPFSGQRMHHTCPCAPNLACVQTSPKKFKCLSK |  | ~100 times greater than the human type ZAQ ligand peptide | 10 times greater than the human type Bv8 peptide | 10 times greater than the human type ZAQ ligand peptide |
